Measurements published in patent US20030092616A1, “STAT6 activation gene” (priority 2001, published 2003).

B1: 417 (nucleic acid, listed as Homo sapiens)
chain: ATTCCTCCCAGGGACCCCAGACCTCTGTCTCTCTCGGCAGGCCTTGGCTCCTTGAACTTTTGGCCGCCATGTACTTCCCGAAGGTCCTCTCTGATGACATGAAGAAGCTGAAGGCCCGAATGCACCAGGCCATAGAAAGATTTTATGATAAAATGCAAAATGCAGAATCAGGACGTGGACAGGTGATGTCGAGCCTGGCAGAGCTGGAGGACGACTTCAAAGAGGGCTACCTGGAGACAGTGGCGGCTTATTATGAGGAGCAGCACCCAGAGCTCACTCCTCTACTTGAAAAAGAAAGAGATGGATTACGGTGCCGAGGCAACAGATCCCCTGTCCCGGATGTTGAGGATCCCGCAACCGAGGAGCCTGGGGAGAGCTTTTGTGACAAGGTCATGAGATGGTTCCAGGCCATGCTGCAGCGGCTGCAGACCTGGTGGCACGGGGTTCTGGCCTGGGTGAAGGAGAAGGTGGTGGCCCTGGTCCATGCAGTGCAGGCCCTCTGGAAACAGTTCCAGAGTTTCTGCTGCTCTCTGTCAGAGCTCTTCATGTCCTCTTTCCAGTCCTACGGAGCCCCACGGGGGGACAAGGAGGAGCTGACACCCCAGAAGTGCTCTGAACCCCAATCCTCAAAATGAAGATACTGACACCACCTTTGCCCTCCCCGTCACCGCGCACCCACCCTGACCCCTCCCTCAGCTGTCCTGTGCCCCGCCCTCTCCCGCACACTCAGTCCCCCTGCCTGGCGTTCCTGCCGCAGCTCTGACCTGGTGCTGTCGCCCTGGCATCTTAATAAAACCTGCTTATACTTCCCTGGC
modifications: CDS (69)..(632)
B2: 159 (nucleic acid, listed as Homo sapiens)
chain: CCGGCGGGCTGGTGAGGAATGGAGCCGGTAGGCTGCTGCGGCGAGTGCCGCGGCTCCTCCGTAGACCCGCGGAGCACCTTCGTGTTGAGTAACCTGGCGGAGGTGGTGGAGCGTGTGCTCACCTTCCTGCCCGCCAAGGCGTTGCTGCGGGTGGCCTGCGTGTGCCGCTTATGGAGGGAGTGTGTGCGCAGAGTATTGCGGACCCATCGGAGCGTAACCTGGATCTCCGCAGGCCTGGCGGAGGCCGGCCACCTGGAGGGGCATTGCTTGGTTCGCGTGGTAGCAGAGGAGCTTGAGAATGTTCGCATCTTACCACATACAGTTCTTTACATGGCTGATTCAGAAACTTTCATTAGTCTGGAAGAGTGTCGTGGCCATAAGAGAGCAAGGAAAAGAACTAGTATGGAAACAGCACTTGCCCTTGAGAAGCTATTCCCCAAACAATGCCAAGTCCTTGGGATTGTGACCCCAGGAATTGTAGTGACTCCAATGGGATCAGGTAGCAATCGACCTCAGGAAATAGAAATTGGAGAATCTGGTTTTGCTTTATTATTCCCTCAAATTGAAGGAATAAAAATACAACCCTTTCATTTTATTAAGGATCCAAAGAATTTAACATTAGAAAGACATCAACTCACTGAAGTAGGTCTTTTAGATAACCCTGAACTTCGTGTGGTCCTTGTCTTTGGTTATAATTGCTGTAAGGTGGGAGCCAGTAATTATCTGCAGCAAGTAGTCAGCACTTTCAGTGATATGAATATCATCTTGGCTGGAGGCCAGGTGGACAACCTGTCATCACTGACTTCTGAAAAGAACCCTCTGGATATTGATGCCTCGGGTGTGGTTGGACTGTCATTTAGTGGACACCGAATCCAGAGTGCCACTGTGCTCCTCAACGAGGACGTCAGTGATGAGAAGACTGCTGAGGCTGCGATGCAGCGCCTCAAAGCGGCCAACATTCCAGAGCATAACACCATTGGCTTCATGTTTGCATGCGTTGGCAGGGGCTTTCAGTATTACAGAGCCAAGGGGAATGTTGAGGCTGATGCATTTAGAAAGTTTTTTCCTAGTGTTCCCTTATTCGGCTTCTTTGGAAATGGAGAAATTGGATGTGATCGGATAGTCACTGGGAACTTTATATTGAGGAAATGTAATGAGGTAAAAGATGATGATCTGTTTCATAGCTATACAACAATAATGGCACTCATACATCTGGGGTCATCTAAATAATAATTAAAGTGGCTTTCATAATATGT
modifications: CDS (19)..(1227)
B3: 455 (nucleic acid, listed as Homo sapiens)
chain: ATGGTGTCCTGGATGATCTCCAGAGCCGTGGTGCTGGTGTTTGGAATGCTTTATCCTGCATATTATTCATACAAAGCTGTGAAAACAAAAAACGTGAAGGAATATGTTCGATGGATGATGTACTGGATTGTTTTTGCTCTCTATACTGTGATTGAAACAGTAGCCGATCAAACAGTTGCTTGGTTTCCCCTGTACTATGAGCTGAAGATTGCTTTTGTCATATGGCTGCTTTCTCCCTATACCAAAGGAGCAAGTTTAATATATAGAAAATTCCTTCATCCACTTCTTTCTTCAAAGGAAAGGGAGATTGATGATTATATTGTACAAGCAAAGGAACGAGGCTATGAAACCATGGTAAACTTTGGACGGCAAGGTTTAAACCTTGCAGCTACTGCTGCTGTTACTGCAGCAGTAAAGAGCCAAGGAGCAATAACTGAACGTTTAAGAAGCTTCAGTATGCATGATTTAACAACTATCCAAGGTGATGAGCCTGTGGGACAAAGACCATACCAACCTCTACCAGAAGCAAAAAAGAAAAGTAAACCAGCCCCCAGTGAATCAGCAGGTTATGGAATTCCACTGAAAGACGGAGATGAGAAAACAGATGAAGAAGCAGAGGGGCCATATTCAGATAATGAGATGTTAACACACAAAGGGCTTCGAAGATCGCAAAGCATGAAATCTGTGAAAACCACCAAAGGCCGCAAAGAGGTGCGGTACGGGTCACTAAAATACAAAGTGAAGAAACGACCACAAGTGTATTTTTAGTCATCTACACGTCAAATATCCC
modifications: CDS (1)..(765)
B4: 177 (nucleic acid, listed as Homo sapiens)
chain: AAACGAAACGGTAACCAGCCCTGGGAAGCCCGCAAGAGGCCTCAGCGGTGGCCGTCCGAGCGCCGAGAGGTGAGGGTGCCCCCGCCTCACCTGCAGAGGGGCCGTTCCGGGCTCGAACCCGGCACCTTCCGGAAAATGGCGGCTGCCAGGCCCAGCCTGGGCCGAGTCCTCCCAGGATCCTCTGTCCTGTTCCTGTGTGACATGCAGGAGAAGTTCCGCCACAACATCGCCTACTTCCCACAGATCGTCTCAGTGGCTGCCCGCATGCTCAAGGTGGCCCGGCTGCTTGAGGTGCCAGTCATGCTGACGGAGCAGTACCCACAAGGCCTGGGCCCCACGGTGCCCGAGCTGGGGACTGAGGGCCTTCGGCCGCTGGCCAAGACCTGCTTCAGCATGGTGCCTGCCCTGCAGCAGGAGCTGGACAGTCGGCCCCAGCTGTGCTCTGTGCTGCTCTGTGGCATTGAGGCACAGGCCTGCATCTTGAACACGACCCTGGACCTCCTAGACCGGGGGCTGCAGGTCCATGTGGTGGTGGACGCCTGCTCCTCACGCAGCCAGGTGGACCGGCTGGTGGCTCTGGCCCGCATGAGACAGAGTGGTGCCTTCCTCTCCACCAGCGAAGGGCTCATTCTGCAGCTTGTGGGCGATGCCGTCCACCCCCAGTTCAAGGAGATCCAGAAACTCATCAAGGAGCCCGCCCCAGACAGCGGACTGCTGGGCCTCTTCCAAGGCCAGCTGCTCCCGGAAATGCAAATGAGACTCCTGGAAACTGGGTGGGAATTGGCTGAGCCGAGATGGAGGCGGGGCTCGGCCCCGGGCCACTTCACGGGGCGGGAAGGGGAGGGGAAGAAGAGTCTCAGACTGTGGGACACGGACTCGCAGAATAAACATATATGTGGCTGTG
modifications: CDS (136)..(903)
B5: 423 (nucleic acid, listed as Homo sapiens)
chain: AAAAAAAAAGCTGGGAGCCGCCGCCCCCGCAGCTGCTGCCGCCGCCGCCAGGGCCCGGACTCGGACGCGTGGTAGCCCCAGGATGGGTGAGTTCAACGAGAAGAAGACAACATGTGGCACCGTTTGCCTCAAGTACCTGCTGTTTACCTACAATTGCTGCTTCTGGCTGGCTGGCCTGGCTGTCATGGCAGTGGGCATCTGGACGCTGGCCCTCAAGAGTGACTACATCAGCCTGCTGGCCTCAGGCACCTACCTGGCCACAGCCTACATCCTGGTGGTGGCGGGCACTGTCGTCATGGTGACTGGGGTCTTGGGCTGCTGCGCCACCTTCAAGGAGCGTCGGAACCTGCTGCGCCTGTACTTCATCCTGCTCCTCATCATCTTTCTGCTGGAGATCATCGCTGGTATCCTCGCCTACGCCTACTACCAGCAGCTGAACACGGAGCTCAAGGAGAACCTGAAGGACACCATGACCAAGCGCTACCACCAGCCGGGCCATGAGGCTGTGACCAGCGCTGTGGCAGCAACAACTCACAGGACTGGCGAGACAGTGAGTGGATCCGCTCACAGGAGGCCGGTGGCCGTGTGGTCCCAGACAGCTGCTGCAAGACGGTGGTGGCTCTTTGTGGGCAGCGAGACCATGCCTCCAACATCTACAAGGTGGAGGGCGGCTGCATCACCAAGTTGGAGACCTTCATCCAGGAGCACCTGAGGGTCATTGGGGCTGTGGGGATCGGCATTGCCTGTGTGCAGGTCTTTGGCATGATCTTCACGTGCTGCCTGTACAGGAGTCTCAAGCTGGAGCACTACTGACCCTGCCTTGGGCCTTGCTGCTGCTGCACCCAACTACTGAGCTGAGACCACTGAGTACCAGGGGCTGGGCTCCCTGATGACACCCACCCTGTGCCATCACCATAACCTCTGGGGACCCCAACCTCAGAGGCAGCTTCAAGTGCCTTTTGCTGCGCACCAATGCCCAGCAGGGGAGGTGAGGGGGGCTGGCGGGGCGAAGTTTGGGGGGTGTTTTGTGGGGCTCCCCAGACACACTCTCTGCCTGGTGGTCAGATGCAGGTTGGAAGGGGCCTTGCTGAGTGGCGCAAGGCCGAGCGTTCCCAGCAGGGGGAGAAACCCTTCACACCCCAGGCCCTTCAGGAACTGGGGCCTTGCCTTGCAGCCACATGGCCCCATCCCAGTTGGGGAAGCCAGGTGAGCTCTGACCCTTGGGCCTGGGCCTCTGCCCCTCCCAACCCAGCCCTCGTCTCCCTCGACAGCGCCCCTGCTGTCTTCCCCACCGCAGTCACCACCACCCGAAATGCCACGTGGTCACTGTGCACTGCCCTGTCCATGTGCCTCTGCGGGGCAGGGCCTTCCTGGTTTTGTTCACTGCTGTACCCAGATGCCTACAACCATCCCTGCCACATACAGGTGCTCAATAAACACTTGTAGAGCAGATGG
modifications: CDS (83)..(709)

system: STAT6; assay: Screening of full-length cDNA clones for promotion of STAT6 activation (luciferase reporter N4×8-luc); format: cell-based; conditions: NIH3T3 cells cotransfected with N4×8-luc reporter and cDNA plasmid; 48 h culture, then mouse IL-4 0.5 ng/ml for 6 h
Procedure, shortened: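 Promotion of STAT6 activation scored as increase in luciferase signal over null-vector control cells. NIH3T3 cells carried N4×8-luc (100 ng) plus cDNA clone; after 48 h culture, 6 h stimulation with 0.5 ng/ml (final) mouse IL-4 preceded reading.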

Molecule | Activity = (luciferase activity of the gene of each SEQ ID NO:)/(luciferase activity of pME18S-FL3)
B1 | 13.4
B2 | 19.1
B3 | 3.3
B4 | 22.6
B5 | 4.8
